# Test results from article PMC2901514 (The Febs Journal, 2010).
# B1: CMP-Neu5Ac synthetase (CNS) from Neisseria meningitidis, K142A mutant (enzyme)
# chain: MEKQNIAVILARQNSKGLPLKNLRKMNGISLLGHTINAAISSKCFDRIIVSTDGGLIAEEAKNFGVEVVLRPAELASDTASSISGVIHALETIGSNSGTVTLLQPTSPLRTGAHIREAFSLFDEKIKGSVVSACPMEHHPLATLLQINNGEYAPMRHLSDLEQPRQQLPQAFRPNGAIYINDTASLIANNCFFIAPTKLYIMSHQDSIDIDTELDLQQAENILNHKES
# Target: the molecule itself
# Assay: SEC
protein,measurement,value
B1,stoichiometry N,2
